“And” between values parts separate entries of the source, which are not always exact repeats. Equal entries are not always repeated.
Experiments:
[1] = target: PEX14 NTD (1-104) (human) (UniProt O75381); experiment: ITC; PEX14 (1-104) (20-60 uM, concentration corrected with the fit) in the cell, peptide or fragment in the syringe; 25 °C, 20 mM Tris pH 7.5, 50 mM NaCl; one-site binding model; single runs of triplicates and their averages
[2] = target: PEX14 NTD (1-104) (human) (UniProt O75381); experiment: ITC; PEX14 NTD (1-104) (20-60 µM) in the cell, titrated with PEX5 W peptides or W0 (0.4-0.6 mM), PEX13 FxxxF (0.46 mM) or PEX13 SH3-CTR (1 mM); 25 °C; 20 mM Tris pH 7.5, 50 mM NaCl; one-site binding model; PEX14 concentration corrected with the fit; triplicates
PEX13 SH3 domain (human) [3] = target: PEX13 SH3 domain (human) (UniProt Q92968); experiment: ITC; PEX13 SH3 at 35-48 µM titrated with PEX5 15-mer peptides or PEX5 1-76 (0.6-0.7 mM) or PEX13 350-403 (0.9-1 mM); 25 °C; 20 mM Tris pH 7.5, 50 mM NaCl; one-site model; triplicates
PEX13 SH3 domain (human) [4] = target: PEX13 SH3 domain (human) (UniProt Q92968); experiment: ITC; PEX13 SH3 (35-48 uM) in the cell, peptide or fragment in the syringe; 25 °C, 20 mM Tris pH 7.5, 50 mM NaCl; one-site binding model; single runs of triplicates and their averages
[5] = target: PEX14 NTD (1-104) (human) (UniProt O75381); experiment: ITC; PEX14 (1-104) at 20-60 µM titrated with PEX5 W peptides or W0 (0.4-0.6 mM), PEX13 FxxxF (0.46 mM) or PEX13 SH3-CTR (1 mM); 25 °C; 20 mM Tris pH 7.5, 50 mM NaCl; one-site model; PEX14 concentration corrected with the fit; triplicates

PEX14 NTD (1-104) (human), sequence (O75381 1-104): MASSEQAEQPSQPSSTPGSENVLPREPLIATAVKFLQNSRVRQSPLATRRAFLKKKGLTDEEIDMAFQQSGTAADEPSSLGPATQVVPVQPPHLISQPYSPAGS

Substance: PEX5 W2 peptide
- stoichiometry N [1]: 1 sites
- stoichiometry N [2]: 1

Substance: PEX5 W3 peptide
- stoichiometry N [1]: 1 sites
- stoichiometry N [2]: 1

Substance: PEX5 W4 peptide
- stoichiometry N [1]: 1 sites
- stoichiometry N [2]: 1

Substance: PEX13 FF/W4 (FxxxF core motif FESVF replaced with WYDEY), as titrated onto the SH3 domain (domain or fragment)
- Kd (PEX13 SH3 domain (human) [3]): 6 µM

Substance: PEX13 FF/W4 (FxxxF fragment with the core motif FESVF replaced by WYDEY) (domain or fragment)
- Kd (PEX13 SH3 domain (human) [4]): 6.48 µM and 6.11 µM and 6.59 µM
- stoichiometry N (PEX13 SH3 domain (human) [4]): 1 sites

Substance: PEX13 FxxxF peptide (residues 350-403) (from UniProt Q92968 350-403) (domain or fragment)
- Kd [5]: 2.8 µM
- stoichiometry N [5]: 1
- Kd (PEX13 SH3 domain (human) [3]): 27 µM

Substance: PEX13 SH3-CTR (residues 261-403) (from UniProt Q92968 261-403) (domain or fragment)
- Kd [5]: 5.4 µM
- stoichiometry N [5]: 1

From paper PMC11024197
